Measurements taken from patent US20150166988A1 (Bicycle, published 2015).
*1 amine or outer side, *2 acyl side, *3 side chain or, on linkers, in order; H or OH if unused. Bridges are numbered along the chain shown (N, C = ends). TBMB = c1c(C[*:1])cc(C[*:3])cc1C[*:2]

B1: TBMB modified peptide PK15 (bi-cyclic peptide) (peptide)
peptide: H-ACSDRFRNCPADEALCG-NH2
modifications: linker 2-9-16 via TBMB
notes: Chemically synthesized 17-mer reacted with TBMB; also called conjugate PK15; peptide conjugate PK15
B2: TBMB modified synthetic peptide PK2 (bi-cyclic peptide) (peptide)
peptide: H-ACSDRFRNCPLWSGTCG-NH2
modifications: linker 2-9-16 via TBMB
SMILES: CC(C)C[C@@H]1NC(=O)[C@@H]2CCCN2C(=O)[C@@H]2CSCc3cc(cc(c3)CSC[C@@H](C(=O)NCC(N)=O)NC(=O)[C@H]([C@@H](C)O)NC(=O)CNC(=O)[C@H](CO)NC(=O)[C@H](Cc3c[nH]c4ccccc34)NC1=O)CSC[C@H](NC(=O)[C@H](C)N)C(=O)N[C@@H](CO)C(=O)N[C@@H](CC(=O)O)C(=O)N[C@@H](CCCNC(=N)N)C(=O)N[C@@H](Cc1ccccc1)C(=O)N[C@@H](CCCNC(=N)N)C(=O)N[C@@H](CC(N)=O)C(=O)N2
B3: TBMB modified synthetic peptide PK4 (bi-cyclic peptide) (peptide)
peptide: H-ACSTERRYCPIEIFPCG-NH2
modifications: linker 2-9-16 via TBMB
SMILES: CC[C@H](C)[C@@H]1NC(=O)[C@H](CCC(=O)O)NC(=O)[C@H]([C@@H](C)CC)NC(=O)[C@@H]2CCCN2C(=O)[C@@H]2CSCc3cc(cc(c3)CSC[C@@H](C(=O)NCC(N)=O)NC(=O)[C@@H]3CCCN3C(=O)[C@H](Cc3ccccc3)NC1=O)CSC[C@H](NC(=O)[C@H](C)N)C(=O)N[C@@H](CO)C(=O)N[C@@H]([C@@H](C)O)C(=O)N[C@@H](CCC(=O)O)C(=O)N[C@@H](CCCNC(=N)N)C(=O)N[C@@H](CCCNC(=N)N)C(=O)N[C@@H](Cc1ccc(O)cc1)C(=O)N2
B4: TBMB modified peptide PK15 hydrolysed in one binding loop by human plasma kallikrein (peptide)
peptide: H-ACSDRFRNCPADEALCG-NH2
modifications: linker 2-9-16 via TBMB; also: one peptide bond in a loop hydrolysed, position not given here

The binders below were run against T1, human plasma kallikrein (activated with factor XIIa) (human, UniProt P03952 20-638) (assay: cell-based or functional assay).
T1 sequence (P03952 20-638 limits assumed): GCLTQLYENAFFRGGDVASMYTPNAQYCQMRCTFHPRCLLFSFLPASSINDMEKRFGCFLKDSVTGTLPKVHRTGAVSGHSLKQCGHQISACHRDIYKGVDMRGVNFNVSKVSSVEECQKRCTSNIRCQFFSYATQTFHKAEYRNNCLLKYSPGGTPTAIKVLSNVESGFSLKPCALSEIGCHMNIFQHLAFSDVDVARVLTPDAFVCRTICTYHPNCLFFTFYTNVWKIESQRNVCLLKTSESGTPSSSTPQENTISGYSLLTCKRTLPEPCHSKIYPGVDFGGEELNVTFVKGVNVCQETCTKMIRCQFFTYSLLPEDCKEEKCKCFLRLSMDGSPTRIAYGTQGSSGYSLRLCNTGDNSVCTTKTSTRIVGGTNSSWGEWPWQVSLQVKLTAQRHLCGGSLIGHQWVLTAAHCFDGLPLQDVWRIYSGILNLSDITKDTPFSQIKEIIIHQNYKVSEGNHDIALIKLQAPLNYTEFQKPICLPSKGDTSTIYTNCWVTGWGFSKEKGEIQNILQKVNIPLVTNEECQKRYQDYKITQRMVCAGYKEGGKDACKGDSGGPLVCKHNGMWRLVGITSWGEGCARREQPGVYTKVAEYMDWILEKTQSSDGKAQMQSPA

Binder	IC50 (nM), residual enzyme activity [nM]
H-ACSDRFRNCPLWSGTCG-NH2 (cysteine pairing not given here) [linear synthetic peptide PK2 (not TBMB modified)]	> 10000
B1	1.7
B2	28.6
H-ACSTERRYCPIEIFPCG-NH2 (cysteine pairing not given here) [linear synthetic peptide PK4 (not TBMB modified)]	7180
B3	33
H-ACSDRFRNCPADEALCG-NH2 (cysteine pairing not given here) [linear synthetic peptide PK15 (not TBMB modified)]	> 10000

Target: T1, human plasma kallikrein (activated with …)
Assay: cell-based or functional assay
Remark: another data set of the same source

Binder	IC50 (nM), residual enzyme activity [nM]
H-ACSDRFRNCPLWSGTCG-NH2 (cysteine pairing not given here) [linear synthetic peptide PK2 (not TBMB modified)]	> 10000
B1	1.7
B2	28.6
H-ACSTERRYCPIEIFPCG-NH2 (cysteine pairing not given here) [linear synthetic peptide PK4 (not TBMB modified)]	7180
B3	33
H-ACSDRFRNCPADEALCG-NH2 (cysteine pairing not given here) [linear synthetic peptide PK15 (not TBMB modified)]	> 10000

What follows are binders tested against T1, human plasma kallikrein (activated with …) (assay: apparent Ki calculated from the enzyme inhibition IC50 (fluorogenic substrate Z-Phe-Arg-AMC) with the Cheng and Prusoff equation).

Binder	Ki [nM]
B1	1.5

Each binder was assayed against human factor XIa (human, UniProt P03951 19-625) (assay: cell-based or functional assay).

Binder	inhibitory activity (residual enzyme activity) [µM]
B2	> 10
B3	> 10

Target: T1, human plasma kallikrein (activated with …)
Assay: cell-based or functional assay
Remark: another data set of the same source

Binder	IC50, residual enzyme activity [nM]
B1	1.6
B4	2.2

Each binder was assayed against recombinant mouse plasma kallikrein (activated with thermolysin) (mouse, UniProt P26262 20-638) (assay: cell-based or functional assay).
Sequence of recombinant mouse plasma kallikrein (activated with thermolysin) (P26262 20-638 limits assumed): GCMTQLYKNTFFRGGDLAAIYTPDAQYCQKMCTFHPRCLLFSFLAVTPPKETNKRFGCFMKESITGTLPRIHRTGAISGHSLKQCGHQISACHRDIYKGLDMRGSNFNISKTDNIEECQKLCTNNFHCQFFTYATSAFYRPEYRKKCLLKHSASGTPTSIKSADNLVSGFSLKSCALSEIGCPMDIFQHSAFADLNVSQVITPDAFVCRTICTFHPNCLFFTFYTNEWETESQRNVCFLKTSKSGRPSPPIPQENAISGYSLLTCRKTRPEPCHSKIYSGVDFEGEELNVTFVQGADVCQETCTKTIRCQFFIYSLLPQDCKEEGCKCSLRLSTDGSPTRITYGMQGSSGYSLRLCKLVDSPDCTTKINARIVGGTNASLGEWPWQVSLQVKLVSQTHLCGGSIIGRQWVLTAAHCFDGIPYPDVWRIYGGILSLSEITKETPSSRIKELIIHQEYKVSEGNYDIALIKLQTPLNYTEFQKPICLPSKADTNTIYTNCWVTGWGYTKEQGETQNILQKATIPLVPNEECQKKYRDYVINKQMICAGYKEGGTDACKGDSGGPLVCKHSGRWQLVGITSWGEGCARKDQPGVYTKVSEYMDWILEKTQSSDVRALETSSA

Binder	inhibitory activity (residual enzyme activity) [µM]
B2	> 10
B3	> 10

These binders were tested against human thrombin (human, UniProt P00734 328-622) (assay: cell-based or functional assay).

Binder	inhibitory activity (residual enzyme activity) [µM]
B2	> 10
B3	> 10
